Measurements published in FireProtDB (doi:10.1016/j.bpc.2006.10.013).

B1: Rubredoxin, P00268 (parent)
chain: MKKYTCTVCGYIYNPEDGDPDNGVNPGTDFKDIPDDWVCPLCGVGKDQFEEVEE
B2: Rubredoxin, P24297 (parent)
chain: MAKWVCKICGYIYDEDAGDPDNGISPGTKFEELPDDWVCPICGAPKSEFEKLED

Assays:
[1] = variants of: B1; details: Clostridium pasteurianum, pH 9.08, Thermal, NMR, Sodium borate 100 mM, reversible: Yes, structure 1IRO, whole UniProt chain shown
[2] = variants of: B2; details: Pyrococcus furiosus (strain ATCC 43587 / DSM 3638 / JCM 8422 / Vc1), pH 9.08, Thermal, NMR, Sodium borate 100 mM, reversible: Yes, structure 1BRF, whole UniProt chain shown

Variant	ddG of mutation (higher = less stable) ([1]; 107 °C) [kcal/mol]	heat capacity change of unfolding ([1]; 107 °C) [kcal/mol/K]	Tm [1] [°C]	ddG of mutation (higher = less stable) [1] [kcal/mol]	heat capacity change of unfolding [1] [kcal/mol/K]	unfolding enthalpy (van 't Hoff) [1] [kcal/mol]	ddG of mutation (higher = less stable) ([2]; 133.6 °C) [kcal/mol]	heat capacity change of unfolding ([2]; 133.6 °C) [kcal/mol/K]	Tm [2] [°C]	heat capacity change of unfolding [2] [kcal/mol/K]	unfolding enthalpy (van 't Hoff) [2] [kcal/mol]
MKKYTCTVCGYIYNPEDGDPDNGVNPGTDFKDLPDDWVCPLCGVGKDQFEEVEE [I33L]	-0.76	0.5	112	-0.76	0.5	64					
MKKYTCTVCGYIYNPEDGDPDNGINPGTDFKDIPDDWVCPLCGVGKDQFEEVEE [V24I]	-0.36	0.5	110	-0.36	0.5	59					
MKKWTCTVCGYIYNPEDGDPDNGINPGTDFKDLPDDWVCPLCGVGKDQFEEVEE [Y4W V24I I33L]			114		0.5	63					
MKKYTCTVCGYIYNPEDGDPDNGINPGTDFKDLPDDWVCPLCGVGKDQFEEVEE [V24I I33L]			115	-1.31	0.5	65					
MAKWVCKICGYIYDEDAGDPDNGISPGTKFEEIPDDWVCPICGAPKSEFEKLED [L33I]							0.88	0.5			
MAKWVCKICGYIYDEDAGDPDNGVSPGTKFEELPDDWVCPICGAPKSEFEKLED [I24V]								0.5	136	0.5	74
MAKWVCKICGYIYDEDAGDPDNGVSPGTKFEEIPDDWVCPICGAPKSEFEKLED [I24V L33I]									133	0.5	62
